# Source: US8209131
# Molecular target: IL-4 receptor alpha (IL-4Ra) (UniProt P24394)
# Test: cell-based or functional assay
# Chain of IL-4 receptor alpha (IL-4Ra) (P24394 26-825 limits assumed): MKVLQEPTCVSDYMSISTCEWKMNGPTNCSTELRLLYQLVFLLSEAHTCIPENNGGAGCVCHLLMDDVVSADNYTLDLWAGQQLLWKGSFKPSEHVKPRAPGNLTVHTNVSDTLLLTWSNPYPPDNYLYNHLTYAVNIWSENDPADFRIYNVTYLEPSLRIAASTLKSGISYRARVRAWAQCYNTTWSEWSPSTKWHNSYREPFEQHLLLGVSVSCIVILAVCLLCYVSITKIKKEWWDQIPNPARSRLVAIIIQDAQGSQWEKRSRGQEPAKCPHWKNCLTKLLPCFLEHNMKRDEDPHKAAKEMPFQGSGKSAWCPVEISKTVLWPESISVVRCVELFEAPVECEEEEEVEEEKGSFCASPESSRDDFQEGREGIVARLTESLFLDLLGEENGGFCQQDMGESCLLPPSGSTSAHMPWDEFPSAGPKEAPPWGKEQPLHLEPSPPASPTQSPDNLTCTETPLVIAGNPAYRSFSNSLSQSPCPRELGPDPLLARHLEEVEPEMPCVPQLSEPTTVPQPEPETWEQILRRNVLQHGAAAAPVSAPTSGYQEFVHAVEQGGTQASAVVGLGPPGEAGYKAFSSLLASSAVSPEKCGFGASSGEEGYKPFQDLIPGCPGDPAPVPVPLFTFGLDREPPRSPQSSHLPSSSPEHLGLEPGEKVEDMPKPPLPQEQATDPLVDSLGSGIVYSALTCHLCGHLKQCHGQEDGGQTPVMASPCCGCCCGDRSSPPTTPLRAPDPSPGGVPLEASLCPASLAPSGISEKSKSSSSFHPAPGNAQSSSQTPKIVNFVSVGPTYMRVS
row,"Conc needed for 50% growth (TF1.8 Bioassay), average [ng/mL]",Substance
1,76.1,IL-4 mutant E9A (from UniProt P05112 25-153) (ligand)
2,1.55,IL-4 mutant K77A (from UniProt P05112 25-153) (ligand)
3,1.65,IL-4 double mutant K77A/R81A (from UniProt P05112 25-153) (ligand)
4,1.36,IL-4 mutant K21A (from UniProt P05112 25-153) (ligand)
5,0.67,IL-4 mutant K42A (from UniProt P05112 25-153) (ligand)
6,0.71,IL-4 mutant R85A (from UniProt P05112 25-153) (ligand)
7,0.63,IL-4 mutant R75A (from UniProt P05112 25-153) (ligand)
8,415,IL-4 mutant R88V (from UniProt P05112 25-153) (ligand)
9,2.95,IL-4 mutant K84A (from UniProt P05112 25-153) (ligand)
10,1.69,IL-4 double mutant K77A/K84A (from UniProt P05112 25-153) (ligand)
11,0.6,IL-4 mutant K12A (from UniProt P05112 25-153) (ligand)
12,11.3,IL-4 double mutant K77A/R53A (from UniProt P05112 25-153) (ligand)
13,4.85,IL-4 mutant R81A (from UniProt P05112 25-153) (ligand)
14,9.39,IL-4 mutant R53A (from UniProt P05112 25-153) (ligand)
